Measured values from article PMC6316570, “G-Protein Coupled Receptor Protein Synthesis on a Lipid Bilayer Using a Reconstituted Cell-Free Protein Synthesis System” (Life, 2018).
Each block holds one molecule with its values, some of them ahead of it.

Key:
[1] = target: T1, His-tagged CX3CR1 (human, UniProt P49238 1-355); assay: SPR; Biacore T200; unpurified PURE-synthesized His-tagged CX3CR1-nanodisc complex captured (~1500 RU) on Penta-His antibody on CM5 chip; purified CX3CL1 injected; HBS-P (10 mM HEPES pH 7.4, 150 mM NaCl, 0.05% P20), 25 °C, 30 µL/min; single cycle kinetics; 1:1 interaction model
T1 construct: CX3CR1 (fractalkine receptor), human cDNA; Two templates are described; The pET28a plasmid has an N-terminal 6xHis tag, the linker DYDIPTT and a TEV site; The linear PCR product takes its His-tag from the reverse primer, which would be C-terminal; In the nanodisc assay the receptor sat in a lipid nanodisc (MSP scaffold, POPC/POPS/cholesterol); In the micelle assay it was in detergent; also called …
T1 sequence (looked up): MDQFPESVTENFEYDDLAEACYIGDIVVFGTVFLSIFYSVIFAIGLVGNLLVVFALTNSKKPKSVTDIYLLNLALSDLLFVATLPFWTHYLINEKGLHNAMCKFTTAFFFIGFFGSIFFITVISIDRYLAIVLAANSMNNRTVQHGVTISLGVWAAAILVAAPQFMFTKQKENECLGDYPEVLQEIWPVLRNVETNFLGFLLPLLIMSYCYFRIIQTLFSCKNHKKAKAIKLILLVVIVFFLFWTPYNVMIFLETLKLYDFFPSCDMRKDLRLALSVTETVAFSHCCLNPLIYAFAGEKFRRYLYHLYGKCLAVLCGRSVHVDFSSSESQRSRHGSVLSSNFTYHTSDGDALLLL

[2] = target: T1, His-tagged CX3CR1; assay: SPR; Biacore T200; unpurified PURE-synthesized Strep-tag II CX3CL1 captured (~1000 RU) on StrepMAB-Immo antibody on CM5 chip; purified His-tagged CX3CR1 synthesized with micelles, in detergent, injected; HBS-P, 25 °C, 30 µL/min; single cycle kinetics; 1:1 interaction model; conditions: one partner purified

Kd [1]: 27.8 nM
Molecule: recombinant CX3CL1 protein (from UniProt P78423 25-397) (ligand)

Kd [2]: 39.4 nM
B1: strep-II-tagged ligand CX3CL1 (ligand, UniProt P78423 25-100, looked up)
chain: QHHGVTKCNITCSKMTSKIPVALLIHYQQNQASCGKRAIILETRQHRLFCADPKEQWVKDAMQHLDRQAAALTRNG
notes: fractalkine (CX3CL1), amplified from pUREstrept2 plasmid; printed size 8.5 kDa; also called fractalkine; CX3CL1-tagged with Strep-tag II; source: PURE system (cell-free), not purified, immobilized directly; not shown: Strep-tag II, N-terminal, kept
